Earlier results on 1 substance are cited in publication PMC5245780.

The series addresses Hax1 isoform 1 (Rattus norvegicus) (UniProt Q7TSE9).

For Hax1 isoform 1 (from UniProt Q7TSE9), the dissociation constant (Kd) is 3.8 nM.

The term Kd denotes the concentration at which binding is half-saturated.
